The nanobody polyreactivity screen of Harvey et al. (2022)

Experiment: yeast display, Sf9 membrane polyspecificity reagent, FACS + sequencing; frameworks hold sequencing errors
Procedure, shortened: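 Polyreactivity labels are assigned by the sorting gate from which each nanobody was recovered. The gates were low and high (top ~1%), set on anti-HA fluorescence for expression and streptavidin fluorescence for reagent binding. Before sorting, galactose-induced (36–48 hours) yeast display cells were stained for 1 hour at 4 °C with 10% biotinylated, detergent-solubilized Sf9 membrane reagent.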

Sequence	polyreactivity (PSR sort gate)
QVQLVESGGGLVQEGGSLRLSCAASGNIFRAYGMGWYRQAPGKERELVAAIDTTGGRTYYADSVKGRFTISRDNAKNTVYLQMNSLKPEDTAVYYCAVRAPAYPYYRGFDYWGQGTQVTVSS	low polyreactivity
QVQLVESGGGLDQAGGSLRLSCAASGFTFYPNAMGWYRQAPGKERELVAAINSGGSTYYADSVKGRFTISRDNAKNTVYLQMNSLKPEDTAVYYCAAYGKRGAVAFYYWGQGTQVTVSS	high polyreactivity
QVQLVESGGGLVQAGGSLRLSCAASGRIFQSYAMGWYRQAPGKERELVAGIRAGGGRTYYADSVKGRFTISRDNAKNTVYLQMNSLKPEDTAVYYCAAGGRPYKLDFTRSDYWGEGTQVTVSS	low polyreactivity
QVQLVESGGGLVQAGGSLRLSCAASGINFESYVMGWYRQAPGKERELVARISYSGGSTYYADSVKGRFTISRDNAKNTVYLQMNSLIPEDTAVYYCNARYLFSGRYSRRMEYWGQGTQVTVSS	high polyreactivity
QVQLVETGGGLVQAGGSLRLSCAASGSIFVLYAMVWSRQAPGKERELVAAISKRTGSSYYADSVKGRFTISRDHAKHTVYLQTNSLKPEDTAVYYCAARGRQYRYYDLDYWGQGTQVTLSS	low polyreactivity
QVQLVESGGGLVQAGGSLRLSCAASGSIFSGNTMGWYRQAPGKERELVAAISKSGGSTYYADSVKGRFTISRDNAKNTVYLQINSLKPEDTAVYYCAVRIRSRVANPGYRWGFNYWGQGTQVTVSS	high polyreactivity
QVQLVESGGGLVQAGGSLRLSCAASGSIFYWNTMGWYRQAPGKERELVAAISYSGGSTYYADSVKGRFTISRDNAKNTVYLQMNSLKPEDTAVYYCAAKYYNRFYYWGQGTQVTVSS	high polyreactivity
QVQLVESGGGLVQAGGSLRLSCAASGRIFLLNAMGWYRQAPGKERELVARISSGRTYYADSVKGRFTISRDNAKNTVYLQMNSLKPEDTAVYYCNATVSSSKYRYFYVNPYDYWGQGTQVTVSS	low polyreactivity
QVQLVESGGGLVQAGGSLRLSCAASGRTFGYYAMGWYRQAPGKEREFVAAIWGGTSTYYADSVKGRFTISRDNAKNTVYLQMNSLKPEDTAVYYCAAEGWLYPTGYSTLHYEYDYWGQGTQVTVSS	low polyreactivity
QVQLVESGGGLVQAGGSLRLSCAASGRTFKYYAMGWYRQAPGKERELVAAISGSGGSTYYADSVKGRFTISRDNAKNTVYLQMNSLKPEDTAVYYCATGGGKTRSYNYWGQGTQVTVSS	high polyreactivity
QVQLVESGGGLVQAGGSLRLSCAASGSTINFYAMGWYRQAPGKERELVAAIRVSSGSTYYADSVKGRFTISRDNAKNTVYLQMDSLKPEDTAVYYCAAYLKVRSPRDGYDYWGQGTQVTVSS	high polyreactivity
QVQLVESGGGLVQAGGSLRISCAASGIIFPQYTMGWYRPAPGKERELVAVITSGGSTYYADSVKGRFTISRDNAKNTVYLQMNSLNPEDTAVYYCAAETETYWWTFITREYDYWGQGTQVTVSS	high polyreactivity
QVQLQESAGGLVQAGGSLRLSCAASGTISTDSYMGWYRQAPGKERKFVATIGYGGITYYADSVKGRSTISRDSAKNTVYLQMNSLKPEDTAVYYCAVNSYYPDHYWYWGRGTQVTVSS	high polyreactivity
QVQLVESGGGLVQAGGSLRLSCAASGRIFQPYTMGWYRQAPGKERELVAAITRSGGSTYYADSVKGRFTISRDNAKNTVYLQMNSLKPEDTAVYYCAADSRPYGKYDYWGQGTQVTVSS	high polyreactivity
QVQLQVSGGDLVQAGGSLRLSCAASGTIYGLISMGWYRQAPGKEREFVAAITDGGNTNYADSVKGRFTISRDNAKYTVYLQMISLKPEDTAVYYCAVLFSDDAYYAYWGQGTQVTVSS	low polyreactivity
QVQLVESGGGLVQAGGSLRLSCAASVFTFSRYAMGWYRQAPGKERELVAAITRGGGNTYYADSVKGRFTISRDNAKNTVYLQMHSLNPEDTAVFYCNAQVGNFGYRSGGYDYWGQGTQVTVSS	high polyreactivity
QVQLVESGGGLVQAGGSLRLSCAASGSIFVSYAMGWYRQAPGKERELVAAITSIGTRTYYADSVKGRFTISRDNAKNTVYLQINSLKPEDTAVYYCNAPRFWSRHGLRDYWGQVTQVTVSS	high polyreactivity
QVQLVESGGGLVQAGGSLRLSCAASGFTFARNAMGWYRQAPGKERELVAAINRSGGSTYYADSVKGRFTISRDNAKNTVYLQMNSLKPEDTAVYYCNKPRLAQQGYDYWGQGTQVTVSS	high polyreactivity
QVQLVESGGGLVKARGSLRLSCAASGFTFGSYAMGWYRQAPGKERELVAAITRGSGGTYYADSVKGRFTISRDNAKNTVYVQMNSLKPEDTAVYNCASCSRSRGALRFAHFDYWGQGTQGTVSS	high polyreactivity
QVQLVESGGGLVQAGGSLRLSCAASGSIFTRYAMGWYRQAPGKEREFVAAITTRGGSTYYADSVKGRFTISRDNAKNTVYLQMNSLKPEDTAVYYCNTRGKSGLWWYNYWGQGTQVTVSS	high polyreactivity
QVQLVESGGGLVQAGGSLRLTCAASGSIFLDYAMGWYRQAPAKERELVAGITISGGSTYYADSVKGRFTISRDNAKNTVYLQMNSLKPEDTAVYYCAKVAPRSSSSQEYYYWGQGTQVTVSS	low polyreactivity
